Patent US7326418B2, “Identification of novel factors that block programmed cell death or apoptosis by targeting JNK” (University of Chicago, priority 2001, dated 2008)
Ends that are not written are not given here.

Tests used:
GST-MKK7 = molecular target: T1, GST-MKK7 (Homo sapiens, UniProt O14733, Q133P/Q94H); assay: GST pull-down, GST-MKK7-coated beads with in vitro-translated Gadd45β products; format: binding
T1 construct: made in house; host or cells: E. coli BL21
T1 sequence (O14733 1-401 Q94H/Q133P limits assumed): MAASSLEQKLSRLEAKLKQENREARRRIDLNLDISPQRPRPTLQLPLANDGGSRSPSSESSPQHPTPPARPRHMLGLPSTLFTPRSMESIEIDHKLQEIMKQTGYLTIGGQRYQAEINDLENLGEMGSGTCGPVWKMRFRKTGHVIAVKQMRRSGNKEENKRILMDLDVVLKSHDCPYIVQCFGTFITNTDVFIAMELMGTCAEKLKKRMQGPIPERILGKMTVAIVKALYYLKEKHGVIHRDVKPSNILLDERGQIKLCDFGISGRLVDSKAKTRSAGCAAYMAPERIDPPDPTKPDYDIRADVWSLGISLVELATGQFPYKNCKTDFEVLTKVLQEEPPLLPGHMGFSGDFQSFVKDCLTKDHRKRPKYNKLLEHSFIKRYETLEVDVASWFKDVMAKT
Procedure: GST pull-down assays were performed using GST- or GST-MKK7-coated beads and in vitro-translated, Gadd45β products corresponding to the polypeptidic fragments indicated in FIG. 36A.
To generate Gadd45β polypeptides, in vitro reactions were primed with pBS-GFP-Gadd450 plasmids, encoding green fluorescent protein (GFP) directly fused to FL or truncated Gadd45β. To obtain these plasmids, pBS-Gadd45β(FL), pBS-Gadd45β (41-160), pBS-Gadd45 (60-160), pBS-Gadd45β (69-160), pBS-Gadd45β (87-160), and pBS-Gadd45β (113-160)—encoding the corresponding amino acid residues of murine Gadd45β were generated—by cloning appropriate gadd45β cDNA fragments into the XhoI and HindIII sites of pBS SK−. These plasmids, encoding either FL or truncated Gadd45β, were then opened with KpnI and XhoI, and the excised DNA fragments were replaced with the KpnI-BsrGI fragment of pEGFP-N1 (Clontech; containing the GFP-coding sequence) directly joined to the following oligonucleotide linker: 5′-[…]-3′ (SEQ ID NO: 48). These constructs were designated as pBS-GFP-Gadd45β. Gadd45β C-terminal deletions were obtained as described for the JNKK2 deletions by using pBS-GFP-Gadd45β(FL) that had been digested with the NgoMI, SphI, or EcoRV restriction enzymes to direct protein synthesis in vitro. These plasmids encoded the 1-134, 1-95, and 1-68 amino acid fragments of Gadd45β, respectively. […]

wild-type MEFs = assay: Apoptosis assay with TAT peptides, wild-type MEFs; format: cell-based, mouse; settings: HIV-TAT-fused peptides; MEFs at passage 4
Source text: (§1) A-B, Apoptosis assays showing that peptide 1 effectively promotes killing by TNFα in IκBαM-Gadd45β and Neo 3DO clones, respectively. C-D, Apoptosis assays showing that both peptide 1 and peptide 2 can facilitate TNFα-induced cytotoxicity in wild-type MEFs, and that only peptide 2 promotes this killing in Gadd45β null MEFs, respectively. (C-D), MEFs were from twin embryos and were used at passage (p)4. A-D, Values (expressed as arbitrary units) were obtained by subtracting background values with untreated cells from values with TNFα-treated cells, and represent the mean (+/−standard deviation) of three experiments.
(§2) Treatments were as follows: murine TNFα (Peprotech), 1,000 U/ml, 10 U/ml, or 1,000 U/ml plus 0.3 μg/ml cycloheximide (CHX; FIG. 33); human TNFα (Peprotech), 2,000 U/ml; PMA plus ionomycin (Sigma), 100 ng/ml and 1 μM, respectively. Treatments with H2O2 and sorbitol were as described previously. In FIG. 33, pre-treatment with HIV-TAT peptides (5 μM) or DMSO was for 30 minutes and incubation with TNFα was for an additional 4 and 3.5 hours, respectively. In FIG. 33, peptides were used at 10 μM and incubation with TNFα was for 4 hours. Apoptosis was measured by using the Cell Death Detection ELISA PLUS kit (Roche). […]

gadd45β−/− MEFs = assay: Apoptosis assay with TAT peptides, Gadd45β null MEFs; format: cell-based, mouse; settings: HIV-TAT-fused peptides; MEFs at passage 4
Source text: as §1, §2

GST-Gadd45β = molecular target: T2, GST-Gadd45β (Mus musculus, UniProt P22339); assay: GST pull-down of in vitro translated MKK7 peptides with GST-Gadd45β; format: binding, murine; settings: fused to eGFP
T2 construct: Murine and human, full-length Gadd45J3 proteins were purified from E. coli as GST-Gadd45β and His6-tagged Gadd45β; made in house; host or cells: E. coli BL21 (pGEX-3X)
T2 sequence (P22339 1-160): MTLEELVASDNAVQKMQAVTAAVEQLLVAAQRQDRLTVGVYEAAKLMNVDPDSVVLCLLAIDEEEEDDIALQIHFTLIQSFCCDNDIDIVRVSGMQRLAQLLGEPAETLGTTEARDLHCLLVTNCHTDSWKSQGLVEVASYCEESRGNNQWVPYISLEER

[1] = molecular target: T3, MKK7 inhibition by Gadd45β (Mus musculus, UniProt P22339); assay: MKK7 kinase assay: peptide interference with MKK7 inhibition by Gadd45β; format: biochemical; settings: GST-Gadd45β pre-incubated with peptides 20 min; FLAG-MKK7 from TNFα-treated 293 cells
T3 construct: Murine and human, full-length Gadd45J3 proteins were purified from E. coli as GST-Gadd45β and His6-tagged Gadd45β; made in house; host or cells: GST-Gadd45β from E. coli; FLAG-MKK7 immunoprecipitated from transfected, TNFα-treated 293 cells
T3 sequence (P22339 1-160): T2 sequence (P22339 1-160)
Procedure: (§3) FLAG-MKK7 was immunoprecipitated from TNFα-treated (10 minutes) 293 cells. b, c, are apoptosis assays showing that peptide 1 promotes killing by TNFα in IκBαM-Gadd45β and Neo clones, respectively. Values (expressed as arbitrary units) were obtained by subtracting background values with untreated cells from values with TNFα-treated cells, and represent the mean (+/−standard deviation) of three experiments.
To define interaction regions and determine whether they are sufficient for binding, Gadd45β association with overlapping peptides spanning these regions (FIG. 29e) was determined. […] This is reminiscent of the mechanism by which p27^KIP1 inhibits cyclin-dependent kinase (CDK)2. A question explored was whether MKK7, Gadd45β-binding peptides interfered with the Gadd45β ability to suppress kinase activity.
GST precipitations with in vitro-translated proteins or purified proteins (FIG. 26-30), and kinase assays were performed. […] MKK7 phosphorylation was monitored by performing immunoprecipitations with anti-P-MKK7 antibodies (developed at Cell Signaling) followed by Western blots with anti-total MKK7 antibodies. […]

IκBαM-Gadd45β 3DO cells = assay: Apoptosis assay (Cell Death Detection ELISA) with TAT peptides, IκBαM-Gadd45β 3DO clones; settings: for TNFα-induced killing of IκBαM-Gadd45β cells: HIV-TAT-fused peptides 5 μM, 30 min pre-treatment, then TNFα
Procedure: Treatments were as follows: murine TNFα (Peprotech), 1,000 U/ml (FIG. 27) or 10 U/ml (FIG. 30); human TNFα (Peprotech), 2,000 U/ml; PMA plus ionomycin (Sigma), 100 ng/ml and 1 μM, respectively. In FIG. 30, pre-treatment with HIV-TAT peptides (5 μM) or DMSO was for 30 minutes and incubation with TNFα was for an additional 7 and 3.5 hours, respectively. Apoptosis was measured by using the Cell Death Detection ELISA^PLUS kit (Roche).
Treatments were as follows: murine TNFα (Peprotech), 1,000 U/ml, 10 U/ml, or 1,000 U/ml plus 0.3 μg/ml cycloheximide (CHX; FIG. 33); human TNFα (Peprotech), 2,000 U/ml; PMA plus ionomycin (Sigma), 100 ng/ml and 1 μM, respectively. […] In FIG. 33, pre-treatment with HIV-TAT peptides (5 μM) or DMSO was for 30 minutes and incubation with TNFα was for an additional 4 and 3.5 hours, respectively. In FIG. 33, peptides were used at 10 μM and incubation with TNFα was for 4 hours. Apoptosis was measured by using the Cell Death Detection ELISA PLUS kit (Roche).

[2] = tested on: Neo 3DO cells (NF-κB-proficient); assay: Apoptosis assay (Cell Death Detection ELISA) with TAT peptides, Neo 3DO clones; format: cell-based
Procedure: as §3
A-B, Apoptosis assays showing that peptide 1 effectively promotes killing by TNFα in IκBαM-Gadd45β and Neo 3DO clones, respectively. […] A-D, Values (expressed as arbitrary units) were obtained by subtracting background values with untreated cells from values with TNFα-treated cells, and represent the mean (+/−standard deviation) of three experiments.
Treatments were as follows: murine TNFα (Peprotech), 1,000 U/ml (FIG. 27) or 10 U/ml (FIG. 30); human TNFα (Peprotech), 2,000 U/ml; PMA plus ionomycin (Sigma), 100 ng/ml and 1 μM, respectively. […] Apoptosis was measured by using the Cell Death Detection ELISA^PLUS kit (Roche).
Treatments were as follows: murine TNFα (Peprotech), 1,000 U/ml, 10 U/ml, or 1,000 U/ml plus 0.3 μg/ml cycloheximide (CHX; FIG. 33); human TNFα (Peprotech), 2,000 U/ml; PMA plus ionomycin (Sigma), 100 ng/ml and 1 μM, respectively. […] Apoptosis was measured by using the Cell Death Detection ELISA PLUS kit (Roche). […]

| Substance | binding to MKK7 in vitro (GST-MKK7) | cytokine (TNFα)-induced toxicity in wild-type fibroblasts (wild-type MEFs) | TNFα-induced killing in gadd45β−/− MEFs (gadd45β−/− MEFs) | binding to GST-Gadd45β (GST-Gadd45β) | prevention of MKK7 inhibition by Gadd45β [1] | basal toxicity in IκBαM-Gadd45β cells (IκBαM-Gadd45β 3DO cells; HIV-TAT-fused peptide, no TNFα) | TNFα-induced killing of IκBαM-Gadd45β cells (IκBαM-Gadd45β 3DO cells) | toxicity in untreated Neo cells ([2]; HIV-TAT-fused peptide, no TNFα) | TNFα-induced killing of NF-κB-proficient (Neo) cells ([2]; HIV-TAT-fused peptides 5 μM, 30 min pre-treatment, then TNFα) |
| --- | --- | --- | --- | --- | --- | --- | --- | --- | --- |
| IALQIHFTLIQSFCCDND [69-86 amino acid region of Gadd45β, positions 69-86 of Gadd45β] | sufficient to bind to MKK7 | – | – | – | – | – | – | – | – |
| NH2-TGHVIAVKQMRRSGNKEENKRILMD-COOH (H-TGHVIAVKQMRRSGNKEENKRILMD-OH; listed as Homo sapiens) [peptide 2, aa 142-166 of MKK7/JNKK2] | – | enhanced | retained (and, in fact, enhanced) | does not bind | – | – | – | – | – |
| peptide 1: MKK7 peptide 132-156, Gadd45β-interacting, spans ATP-binding site K149; fused to cell-permeable HIV-TAT peptide for cell assays (GPVWKMRFRKTGHVIAVKQMRRSGN; also: fused to HIV-TAT peptide for cell assays; listed as Homo sapiens) | – | enhanced | completely insensitive | sufficient to recapitulate this binding | prevented MKK7 inhibition by Gadd45β | marginal basal toxicity | markedly increased susceptibility | minimal toxicity | promoted TNFα-induced killing |
| peptide 7: MKK7 peptide 220-234, Gadd45β-interacting; fused to HIV-TAT peptide for cell assays (GKMTVAIVKALYYLK; also: fused to HIV-TAT peptide for cell assays; listed as Homo sapiens) | – | – | – | sufficient to recapitulate this binding | did not | – | no effect | – | – |
